The record followed here is PMC7525818 (Molecular Biology of the Cell, 2020).

The data set concerns the molecule itself. Put plainly: cross-linking.

B1: recombinant full-length human advillin (GST tag cleaved) (natural protein, UniProt O75366 1-819, looked up)
chain: MPLTSAFRAVDNDPGIIVWRIEKMELALVPVSAHGNFYEGDCYVILSTRRVASLLSQDIHFWIGKDSSQDEQSCAAIYTTQLDDYLGGSPVQHREVQYHESDTFRGYFKQGIIYKQGGVASGMKHVETNTYDVKRLLHVKGKRNIRATEVEMSWDSFNRGDVFLLDLGKVIIQWNGPESNSGERLKAMLLAKDIRDRERGGRAKIGVIEGDKEAASPELMKVLQDTLGRRSIIKPTVPDEIIDQKQKSTIMLYHISDSAGQLAVTEVATRPLVQDLLNHDDCYILDQSGTKIYVWKGKGATKAEKQAAMSKALGFIKMKSYPSSTNVETVNDGAESAMFKQLFQKWSVKDQTMGLGKTFSIGKIAKVFQDKFDVTLLHTKPEVAAQERMVDDGNGKVEVWRIENLELVPVEYQWYGFFYGGDCYLVLYTYEVNGKPHHILYIWQGRHASQDELAASAYQAVEVDRQFDGAAVQVRVRMGTEPRHFMAIFKGKLVIFEGGTSRKGNAEPDPPVRLFQIHGNDKSNTKAVEVPAFASSLNSNDVFLLRTQAEHYLWYGKGSSGDERAMAKELASLLCDGSENTVAEGQEPAEFWDLLGGKTPYANDKRLQQEILDVQSRLFECSNKTGQFVVTEITDFTQDDLNPTDVMLLDTWDQVFLWIGAEANATEKESALATAQQYLHTHPSGRDPDTPILIIKQGFEPPIFTGWFLAWDPNIWSAGKTYEQLKEELGDAAAIMRITADMKNATLSLNSNDSEPKYYPIAVLLKNQNQELPEDVNPAKKENYLSEQDFVSVFGITRGQFAALPGWKQLQMKKEKGLF
Regarding B1, the binding result is listed as “binds”.

B2: recombinant full-length human villin (GST tag cleaved) (natural protein, UniProt P09327 1-827, looked up)
chain: MTKLSAQVKGSLNITTPGLQIWRIEAMQMVPVPSSTFGSFFDGDCYIILAIHKTASSLSYDIHYWIGQDSSLDEQGAAAIYTTQMDDFLKGRAVQHREVQGNESEAFRGYFKQGLVIRKGGVASGMKHVETNSYDVQRLLHVKGKRNVVAGEVEMSWKSFNRGDVFLLDLGKLIIQWNGPESTRMERLRGMTLAKEIRDQERGGRTYVGVVDGENELASPKLMEVMNHVLGKRRELKAAVPDTVVEPALKAALKLYHVSDSEGNLVVREVATRPLTQDLLSHEDCYILDQGGLKIYVWKGKKANEQEKKGAMSHALNFIKAKQYPPSTQVEVQNDGAESAVFQQLFQKWTASNRTSGLGKTHTVGSVAKVEQVKFDATSMHVKPQVAAQQKMVDDGSGEVQVWRIENLELVPVDSKWLGHFYGGDCYLLLYTYLIGEKQHYLLYVWQGSQASQDEITASAYQAVILDQKYNGEPVQIRVPMGKEPPHLMSIFKGRMVVYQGGTSRTNNLETGPSTRLFQVQGTGANNTKAFEVPARANFLNSNDVFVLKTQSCCYLWCGKGCSGDEREMAKMVADTISRTEKQVVVEGQEPANFWMALGGKAPYANTKRLQEENLVITPRLFECSNKTGRFLATEIPDFNQDDLEEDDVFLLDVWDQVFFWIGKHANEEEKKAAATTAQEYLKTHPSGRDPETPIIVVKQGHEPPTFTGWFLAWDPFKWSNTKSYEDLKAELGNSRDWSQITAEVTSPKVDVFNANSNLSSGPLPIFPLEQLVNKPVEELPEGVDPSRKEEHLSIEDFTQAFGMTPAAFSALPRWKQQNLKKEKGLF
On to B2, for which the “stoichiometry N” value is 2.

A word on the stoichiometry N: it is the number of molecules, sites or subunits per partner or assembly.
